Source: publication doi:10.1101/2020.09.18.291195 (bioRxiv, 2020)

How the values were obtained:
[1] = target: human LI-cadherin EC1-5 (human); experiment: AUC
[2] = target: the molecule itself; experiment: AUC

Chain of human LI-cadherin EC1-5 (domain or fragment) (Q12864 25-782): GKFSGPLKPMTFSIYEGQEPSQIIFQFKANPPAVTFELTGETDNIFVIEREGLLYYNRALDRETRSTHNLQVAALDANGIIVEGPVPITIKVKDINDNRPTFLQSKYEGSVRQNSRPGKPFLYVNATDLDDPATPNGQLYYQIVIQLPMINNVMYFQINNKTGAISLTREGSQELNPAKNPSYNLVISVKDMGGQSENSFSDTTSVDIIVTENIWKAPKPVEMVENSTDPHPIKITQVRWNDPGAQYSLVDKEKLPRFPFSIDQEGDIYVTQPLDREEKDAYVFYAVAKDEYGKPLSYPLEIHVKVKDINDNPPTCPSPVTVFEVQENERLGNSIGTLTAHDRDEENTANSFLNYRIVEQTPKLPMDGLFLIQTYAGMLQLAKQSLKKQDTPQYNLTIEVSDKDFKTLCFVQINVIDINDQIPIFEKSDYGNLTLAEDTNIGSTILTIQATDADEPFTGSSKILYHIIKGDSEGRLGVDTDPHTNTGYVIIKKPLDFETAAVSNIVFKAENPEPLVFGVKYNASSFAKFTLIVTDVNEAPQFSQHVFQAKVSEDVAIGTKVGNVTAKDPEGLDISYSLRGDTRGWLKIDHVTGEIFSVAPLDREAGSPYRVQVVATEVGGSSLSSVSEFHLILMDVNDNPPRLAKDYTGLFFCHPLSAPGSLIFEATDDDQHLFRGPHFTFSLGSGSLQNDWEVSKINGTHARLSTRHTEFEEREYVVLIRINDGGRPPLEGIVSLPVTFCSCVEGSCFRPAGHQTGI

| Kd [1] [µM] | stoichiometry N [1] | Molecule | Kd [2] [µM] | stoichiometry N [2] |
| --- | --- | --- | --- | --- |
| 22.8 | 2 | human LI-cadherin EC1-5 (domain or fragment) | – | – |
| – | – | human LI-cadherin EC1-4 (domain or fragment, N-glycans (four partial N-glycans modelled in chain A and two in chain B of the crystal structure)) QEGKFSGPLKPMTFSIYEGQEPSQIIFQFKANPPAVTFELTGETDNIFVIEREGLLYYNRALDRETRSTHNLQVAALDANGIIVEGPVPITIKVKDINDNRPTFLQSKYEGSVRQNSRPGKPFLYVNATDLDDPATPNGQLYYQIVIQLPMINNVMYFQINNKTGAISLTREGSQELNPAKNPSYNLVISVKDMGGQSENSFSDTTSVDIIVTENIWKAPKPVEMVENSTDPHPIKITQVRWNDPGAQYSLVDKEKLPRFPFSIDQEGDIYVTQPLDREEKDAYVFYAVAKDEYGKPLSYPLEIHVKVKDINDNPPTCPSPVTVFEVQENERLGNSIGTLTAHDRDEENTANSFLNYRIVEQTPKLPMDGLFLIQTYAGMLQLAKQSLKKQDTPQYNLTIEVSDKDFKTLCFVQINVID | 39.8 | 2 |
| – | – | human LI-cadherin EC1-2 (domain or fragment) GPLKPMTFSIYEGQEPSQIIFQFKANPPAVTFELTGETDNIFVIEREGLLYYNRALDRETRSTHNLQVAALDANGIIVEGPVPITIKVKDINDNRPTFLQSKYEGSVRQNSRPGKPFLYVNATDLDDPATPNGQLYYQIVIQLPMINNVMYFQINNKTGAISLTREGSQELNPAKNPSYNLVISVKDMGGQSENSFSDTTSVDIIVTE | 75 | 2 |
